Consider three molecules from patent US20250236683A1 (published 2025).

The Kd is a measure of binding affinity in units of concentration. Read a low Kd as tighter binding.

The experiment deals with human PAD2 protein (UniProt Q9Y2J8 1-665). In words: SPR. On the technique in general: Surface plasmon resonance follows binding to a sensor surface in real time, without labels.
Chain of human PAD2 protein (Q9Y2J8 whole entry): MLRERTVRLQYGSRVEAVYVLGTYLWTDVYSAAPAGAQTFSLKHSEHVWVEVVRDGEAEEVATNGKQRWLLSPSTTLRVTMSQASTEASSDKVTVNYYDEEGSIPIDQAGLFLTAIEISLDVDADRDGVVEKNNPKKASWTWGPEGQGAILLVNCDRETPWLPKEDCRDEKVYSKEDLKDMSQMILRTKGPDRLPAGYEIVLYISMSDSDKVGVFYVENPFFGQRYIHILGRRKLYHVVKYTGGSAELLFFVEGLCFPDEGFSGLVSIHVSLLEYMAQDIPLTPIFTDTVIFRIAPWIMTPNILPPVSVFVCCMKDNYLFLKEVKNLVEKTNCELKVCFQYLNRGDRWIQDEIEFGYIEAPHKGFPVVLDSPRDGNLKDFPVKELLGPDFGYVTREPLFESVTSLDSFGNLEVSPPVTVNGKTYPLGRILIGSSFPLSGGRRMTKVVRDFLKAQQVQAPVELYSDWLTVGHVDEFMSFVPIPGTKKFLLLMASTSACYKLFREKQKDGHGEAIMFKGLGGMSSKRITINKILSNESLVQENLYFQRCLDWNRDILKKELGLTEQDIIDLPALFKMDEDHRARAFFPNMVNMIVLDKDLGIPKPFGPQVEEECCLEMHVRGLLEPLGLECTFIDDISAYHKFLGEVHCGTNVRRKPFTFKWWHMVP

B1: PK1-16 (antibody, V domains shown)
VH: AVTLDESGGGLQTPGGGLSLVCKASGFTFRSYAMYWVRQAPGKGLEWLAGISSSGRYTGYAPAVKGRATISRDNGQSTVRLQLSNLRAEDAGTYYCAKDVYDSWTYANRIDAWGHGTEVIVSS
VL: ALTQPSSVSANPGETVKITCSGGGRRGYYGWYQQKSPGSAPVTVIYNNDERPSNIPSRFSGFKSGSTATLTITGVQAEDEAVYYCGSGDTTTDSGIFGAGTTLTVLG
Turning to B1, binding was characterised by a dissociation constant (Kd) of 1.68 nM.

B2: CK1-14 (antibody, V domains shown)
VH: AVTLDESGGGLQTPGGALSLVCKASGFTFTRYAIQWVRQAPGKGLEWVGVINSGGRTLYAPAVKGRATISRDNGQSTVRLQLNNLRAEDTAIYYCVRGGYAYGIETWGHGTEVIVSS
VL: ALTQPSSVSANPGETVKITCSGSRYDYGWYQQKSPGSAPVTLIYYNNKRPSDIPSRFSGSKSGSTHTLTITGVQADDEAVYFCGSTDTSNDIFGAGTTLTVLG
Turning to B2, binding was put at a Kd of 1.37 nM. The Kd values of the last two molecules are within 1.5-fold of each other.

B3: CK1-10 (antibody, V domains shown)
VH: AVTLDESGGGLQTPGRALSLVCKASGFTFSDYGMGWMRQAPGKGLEWVGAISNRGSHTYYGAAVKGRATISRDNGQSTVRLQLNNLRAEDTGTYYCAKDAGTCISSYGFSCVSAASIDAWGHGTEVIVSS
VL: ALTQPSSVSANLGGTVKITCSGGSGSYGGSYYYGWYQQKAPGSAPVTLIYDNTNRPSNIPSRFSGSKSGSTATLTITGVQADDEAVYFCGSIDSISDADIFGAGTTLTVLG
Turning to B3, binding was characterised by a dissociation constant (Kd) of 0.9 nM. Against the preceding molecule, the Kd is about 1.5-fold lower.
